The values below come from paper PMC8504119.

In the experiment the target is tetrameric biotin non-binding streptavidin 'Dead' (SA-4D) (UniProt P22629). The experiment is described as follows: SDS-PAGE without boiling; refolded, purified SA-A and SA-D; samples not subjected to thermal denaturation keep the tetramer.

As to “tetrameric biotin non-binding streptavidin 'Dead' (SA-4D) (from UniProt P22629 25-183) (natural protein)”, the stoichiometry N turned out to be 4.

What is called stoichiometry N is the number of molecules, sites or subunits per partner or assembly.
